In patent US20220356256A1 (published 2022):

Legend:
Experiment in all cases: IF staining, CHO cells
[1] = biological target: T1, FZD3 expressed on CHO cells (UniProt Q9NPG1 23-136, limits assumed)
T1 construct: As m62
T1 sequence (looked up): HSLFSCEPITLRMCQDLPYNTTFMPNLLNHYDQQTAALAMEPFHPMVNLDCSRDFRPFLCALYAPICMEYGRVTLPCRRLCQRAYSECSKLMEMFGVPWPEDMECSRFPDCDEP

[2] = biological target: T2, FZD6 expressed on CHO cells (UniProt O60353 19-132, limits assumed)
T2 construct: As m62
T2 sequence (looked up): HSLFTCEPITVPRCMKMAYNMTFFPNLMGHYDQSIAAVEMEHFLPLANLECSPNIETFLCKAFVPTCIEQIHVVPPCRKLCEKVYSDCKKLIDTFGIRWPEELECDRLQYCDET

[3] = biological target: T3, FZD10 expressed on CHO cells (UniProt Q9ULW2 29-150, limits assumed)
T3 construct: As m62
T3 sequence (looked up): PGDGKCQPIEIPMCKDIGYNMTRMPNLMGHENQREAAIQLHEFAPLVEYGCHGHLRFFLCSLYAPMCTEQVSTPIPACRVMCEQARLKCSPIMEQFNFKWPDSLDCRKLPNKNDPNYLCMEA

binding result [1]: no binding
binding result [2]: no binding
binding result [3]: no binding
B1: Fab 5017 (Fab, V domains shown)
VH: EVQLVESGGGLVQPGGSLRLSCAASGFNLYYTDMHWVRQAPGKGLEWVASISLFFGYVSYADSVKGRFTISADTSKNTAYLQMNSLRAEDTAVYYCARYLAMDYWGQGTLVTVSS
VL: DIQMTQSPSSLSASVGDRVTITCRASQSVSSAVAWYQQKPGKAPKLLIYSASSLYSGVPSRFSGSRSGTDFTLTISSLQPEDFATYYCQQAAYHWPPLFTFGQGTKVEIKR
notes: Tested as purified Fab; also called 4A1
